# B1: Azoarcus group I ribozyme (parent)
# chain: GUGCCUUGCGCCGGGAAACCACGCAAGGGAUGGUGUCAAAUUCGGCGAAACCUAAGCGCCCGCCCGGGCGUAUGGCAACGCCGAGCCAAGCUUCGGCGCCUGCGCCGAUGAAGGUGUAGAGACUAGACGGCACCCACCUAAGGCAAACGCUAUGGUGAAGGCAUAGUCCAGGGAGUGGCGAAAGUCACACAAACCGG
# Variants of: B1
# Assay: reverse-splicing fitness (ratio to wild type); higher = more active; in vitro selection; Mg2+ level not given
# Method in brief: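 An in vitro group I ribozyme library with randomized positions was T7-transcribed and gel-purified. In triplicate, 10 pmol RNA in EPPS pH 7.5 was reacted with 50 pmoles of a 30-nt RNA substrate for 1 h at 37 °C across several added MgCl2 levels (1–48 mM), then stopped with EDTA. Products were reverse transcribed from a substrate-complementary primer, PCR-amplified and sequenced (HiSeq 4000). Fitness is a variant's read proportion after selection over that before, normalised to wild type.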
row,Variant,reverse-splicing fitness
1,C82U A111G A145G C150U C169A U176A,0.0161
2,C82U A111G A145G C150U C169A U176G,0.00534
3,C82U A111G A145G C150U C169A U176C,0.0167
4,C82U A111G A145C C150G C169U U176G,0.00478
5,C82U A111G A145C C150G C169U U176C,0.00873
6,C82U A111G A145C C150G C169U U176A,0.00744
7,C82U A111G A120U C150A C169U U176A,0.00577
8,C82U A111G A120U C150A C169U U176C,0.00372
9,C82U A111G A120U C150A C169U U176G,0.00202
10,C82U A111G A145C C150U U176C,0.0617
11,C82U A111G A145C C150U U176G,0.0185
12,C82U A111G A145C C150U U176A,0.0454
13,C82U A111G A145C C169G U176A,0.0196
14,C82U A111G A145C C169G U176G,0.00461
15,C82U A111G A145C C169G U176C,0.0119
16,C82U A111G U176G,0.0517
17,C82U A111G U176A,0.193
18,C82U A111G U176C,0.274
19,C82U A111G A145C C150A,0.019
20,C82U A111G A145C C150G,0.0393
21,C82U A111G A145C C150U,0.091
22,C82U A111G A145U C150A C169G U176A,0.0131
23,C82U A111G A145U C150A C169G U176G,0.00518
24,C82U A111G A145U C150A C169G U176C,0.0113

row,Variant,reverse-splicing fitness
1,C82U A111G A145G C169U,0.0113
2,C82U A111G A145G C169G,0.00933
3,C82U A111G A145G C169A,0.00814
4,C82U A111G C150A C169A U176A,0.0183
5,C82U A111G C150A C169A U176G,0.00533
6,C82U A111G C150A C169A U176C,0.0195
7,C82U A111G C169U U176G,0.00449
8,C82U A111G C169U U176A,0.0145
9,C82U A111G C169U U176C,0.0132
10,C82U A111G C169A U176A,0.0124
11,C82U A111G C169A U176C,0.0146
12,C82U A111G C169A U176G,0.00438
13,C82U A111G A145G C150G C169G U176A,0.00977
14,C82U A111G A145G C150G C169G U176G,0.00507
15,C82U A111G A145G C150G C169G U176C,0.00848
16,C82U A111G C150U C169U U176G,0.00589
17,C82U A111G C150U C169U U176C,0.0133
18,C82U A111G C150U C169U U176A,0.0126
19,C82U A111G A145U C150G,0.0379
20,C82U A111G A145U C150U,0.276
21,C82U A111G A145U C150A,0.0335
22,C82U A111G A145G U176C,0.265
23,C82U A111G A145G U176A,0.201
24,C82U A111G A145G U176G,0.048

row,Variant,reverse-splicing fitness
1,C82U A111G A120U C169A U176C,0.00211
2,C82U A111G A120U C169A U176A,0.0024
3,C82U A111G A120U C169A U176G,0.00189
4,C82U A111G C150G C169U U176A,0.00707
5,C82U A111G C150G C169U U176G,0.00511
6,C82U A111G C150G C169U U176C,0.0122
7,C82U A111G A145C C150U C169G U176A,0.0186
8,C82U A111G A145C C150U C169G U176C,0.00977
9,C82U A111G A145C C150U C169G U176G,0.00565
10,C82U A111G A120U C169A,0.00275
11,C82U A111G A120U C169G,0.00416
12,C82U A111G A120U C169U,0.00493
13,C82U A111G A120U C150A U176A,0.00587
14,C82U A111G A120U C150A U176G,0.00238
15,C82U A111G A120U C150A U176C,0.00592
16,C82U A111G A145G C150A,0.0568
17,C82U A111G A145G C150U,0.334
18,C82U A111G A145G C150G,0.0407
19,C82U A111G A145C C169U U176A,0.0108
20,C82U A111G A145C C169U U176C,0.00903
21,C82U A111G A145C C169U U176G,0.00386
22,C82U A111G A145C C150A C169G U176C,0.0112
23,C82U A111G A145C C150A C169G U176G,0.0054
24,C82U A111G A145C C150A C169G U176A,0.0215

row,Variant,reverse-splicing fitness
1,C82U A111G A145G C150G U176A,0.00967
2,C82U A111G A145G C150G U176C,0.0206
3,C82U A111G A145G C150G U176G,0.00618
4,C82U A111G C169A,0.0072
5,C82U A111G C169G,0.0092
6,C82U A111G C169U,0.0128
7,C82U A111G C150U C169U,0.0108
8,C82U A111G C150U C169G,0.0092
9,C82U A111G C150U C169A,0.00959
10,C82U A111G C150A U176C,0.0361
11,C82U A111G C150A U176A,0.0272
12,C82U A111G C150A U176G,0.0117
13,C82U A111G C150G C169A U176G,0.00562
14,C82U A111G C150G C169A U176C,0.0121
15,C82U A111G C150G C169A U176A,0.00962
16,C82U A111G A145U C169A,0.00645
17,C82U A111G A145U C169G,0.00731
18,C82U A111G A145U C169U,0.0102
19,C82U A111G A120U C150U C169G,0.00459
20,C82U A111G A120U C150U C169A,0.00334
21,C82U A111G A120U C150U C169U,0.00388
22,C82U A111G A120U C150G C169U U176A,0.00387
23,C82U A111G A120U C150G C169U U176C,0.00396
24,C82U A111G A120U C150G C169U U176G,0.00234

row,Variant,reverse-splicing fitness
1,C82U A111G A145G C150G C169U U176A,0.0101
2,C82U A111G A145G C150G C169U U176C,0.012
3,C82U A111G A145G C150G C169U U176G,0.00654
4,C82U A111G A145U C150G C169A U176C,0.00932
5,C82U A111G A145U C150G C169A U176A,0.00927
6,C82U A111G A145U C150G C169A U176G,0.00561
7,C82U A111G A145G C150U C169U U176C,0.0132
8,C82U A111G A145G C150U C169U U176A,0.0132
9,C82U A111G A145G C150U C169U U176G,0.005
10,C82U A111G A145C C150U C169A U176A,0.00923
11,C82U A111G A145C C150U C169A U176G,0.00526
12,C82U A111G A145C C150U C169A U176C,0.00548
13,C82U A111G A120U A145U U176G,0.004
14,C82U A111U A120C A145C C150A C169U U176A,0.0149
15,C82U A111U A120C A145C C150A C169U U176C,0.0112
16,C82U A111G A120U C150G C169A U176A,0.00509
17,C82U A111G A120U C150G C169A U176G,0.00235
18,C82U A111G A120U C150G C169A U176C,0.00364
19,C82U A111G A145C C150G C169G U176C,0.00634
20,C82U A111G A145C C150G C169G U176A,0.00777
21,C82U A111G A145C C150G C169G U176G,0.0047
22,C82U A111G A145C C169U,0.00982
23,C82U A111G A145C C169G,0.0078
24,C82U A111G A145C C169A,0.00618

row,Variant,reverse-splicing fitness
1,C82U A111G A145U C150G U176A,0.0137
2,C82U A111G A145U C150G U176C,0.0255
3,C82U A111G A145U C150G U176G,0.00442
4,C82U A111G A145G C150A U176C,0.0481
5,C82U A111G A145G C150A U176G,0.0108
6,C82U A111G A145G C150A U176A,0.0328
7,C82U A111G A145U C169U U176A,0.012
8,C82U A111G A145U C169U U176G,0.00468
9,C82U A111G A145U C169U U176C,0.00988
10,C82U A111G A120U C150U U176A,0.00678
11,C82U A111G A120U C150U U176C,0.0105
12,C82U A111G A120U C150U U176G,0.00374
13,C82U A111G A145C C150G C169A U176G,0.00511
14,C82U A111G A145C C150G C169A U176C,0.00614
15,C82U A111G A145C C150G C169A U176A,0.00801
16,C82U A111G C150G C169G U176A,0.0075
17,C82U A111G C150G C169G U176C,0.00418
18,C82U A111G C150G C169G U176G,0.00525
19,C82U A111G A120U C169G U176C,0.00265
20,C82U A111G A120U C169G U176A,0.0028
21,C82U A111G A120U C169G U176G,0.00183
22,C82U A111G A145U C169A U176G,0.00528
23,C82U A111G A145U C169A U176C,0.00683
24,C82U A111G A145U C169A U176A,0.00885

row,Variant,reverse-splicing fitness
1,C82U A111G C150A C169G U176G,0.00673
2,C82U A111G C150A C169G U176A,0.0207
3,C82U A111G C150A C169G U176C,0.0199
4,C82U A111G A120U C150A C169A U176A,0.00374
5,C82U A111G A120U C150A C169A U176C,0.00313
6,C82U A111G A120U C150A C169A U176G,0.00269
7,C82U A111G C150U C169G U176A,0.0191
8,C82U A111G C150U C169G U176C,0.0162
9,C82U A111G C150U C169G U176G,0.00558
10,C82U A111G A145G C150A C169A U176C,0.0247
11,C82U A111G A145G C150A C169A U176G,0.00546
12,C82U A111G A145G C150A C169A U176A,0.0187
13,C82U A111G A145U C150U C169A U176A,0.0115
14,C82U A111G A145U C150U C169A U176C,0.00733
15,C82U A111G A145U C150U C169A U176G,0.00546
16,C82U A111G A120U C150A C169G U176G,0.00213
17,C82U A111G A120U C150A C169G U176C,0.00439
18,C82U A111G A120U C150A C169G U176A,0.0073
19,C82U A111G A120U C150A C169A,0.00324
20,C82U A111G A120U C150A C169G,0.00358
21,C82U A111G A120U C150A C169U,0.00325
22,C82U A111G A120U C150U C169U U176G,0.0019
23,C82U A111G A120U C150U C169U U176A,0.00404

# Source: the RNAGym collection of RNA variant scans (doi:10.1093/molbev/msab373)
